{"source": "paper PMC2118782", "key": {"[1]": {"molecular_target": "Ld class I major histocompatibility complex molecule (30-5-7+ Ld) (mouse)", "sequence (P01897 25-362, one chain of several)": "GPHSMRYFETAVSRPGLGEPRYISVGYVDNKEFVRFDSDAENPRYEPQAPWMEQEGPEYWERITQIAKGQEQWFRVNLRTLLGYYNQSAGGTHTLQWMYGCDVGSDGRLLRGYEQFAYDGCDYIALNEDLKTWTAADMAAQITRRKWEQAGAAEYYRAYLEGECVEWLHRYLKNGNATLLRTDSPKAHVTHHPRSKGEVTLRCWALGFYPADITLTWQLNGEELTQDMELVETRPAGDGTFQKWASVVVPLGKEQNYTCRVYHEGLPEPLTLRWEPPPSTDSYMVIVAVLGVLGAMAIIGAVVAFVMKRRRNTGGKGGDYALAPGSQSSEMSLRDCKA", "assay": "co-IP"}, "[2]": {"molecular_target": "Ld class I major histocompatibility complex molecule (30-5-7+ Ld) (mouse)", "assay": "co-IP", "remark": "listed apart in the source"}}, "note": "Where two headings read alike, the source gives them in different places."}
{"substance": "MCMV pp89 168-176 peptide", "values": [{"measurement": "percent precipitable counts", "setting": "[1]", "result": 98, "unit": "%"}, {"measurement": "pellet cpm (bound peptide)", "setting": "[2]", "result": 7630, "unit": "cpm"}, {"measurement": "percent precipitable counts", "setting": "[2]", "result": 80, "unit": "%"}]}
